{"source": "patent US20190083612A1", "about": "(RINAT NEUROSCIENCE, published 2019)", "molecules": {"B1": {"name": "Rat-PD-L1-Fc-Tag (Creative BioMart) (Fc fusion, not shown: a dimerising Fc or GST; small tags and cut ends)", "chain": "FTITAPKDLYVVEYGSNVTMECRFPVEQKLDLLALVVYWEKEDKEVIQFVEGEEDLKPQHSSFRGRAFLPKDQLLKGNAVLQITDVKLQDAGVYCCMISYGGADYKRITLKVNAPYRKINQRISMDPATSEHELMCQAEGYPEAEVIWTNSDHQSLSGETTVTTSQTEEKLLNVTSVLRVNATANDVFHCTFWRVHSGENHTAELIIPELPVPRLPHNRTH"}, "B2": {"name": "rat-PD-1 (recombinant purified, Example 12) (receptor)", "chain": "LEVLNKPWRPLTFSPTWLTVSEGANATFTCSFSNWSEDLKLNWYRLSPSNQTEKQAAFCNGYSQPVRDARFQIVQLPNGHDFHMNILDARRNDSGIYLCGAISLPPKAQIKESPGAELVVTERILETPTRYPRPSPKPEGQFQGL"}, "B3": {"name": "mAb4 (antibody, V domains shown)", "VH": "QVQLVQSGAEVKKPGASVKVSCKASGYTFTSYWINWVRQAPGQGLEWMGNIYPGSSLTNYNEKFKNRVTMTRDTSTSTVYMELSSLRSEDTAVYYCARLLTGTFAYWGQGTLVTVSS", "VL": "DIVMTQSPDSLAVSLGERATINCKSSQSLWDSTNQKNFLTWYQQKPGQPPKLLIYWTSTRESGVPDRFSGSGSGTDFTLTISSLQAEDVAVYYCQNDYFYPLTFGGGTKVEIK", "notes": "Variable regions only"}}, "key": {"[1]": {"target": "hu-FcRn (human neonatal Fc receptor) (human) (UniProt P55899)", "sequence (P55899 24-297 limits assumed, chain 1 of 2)": "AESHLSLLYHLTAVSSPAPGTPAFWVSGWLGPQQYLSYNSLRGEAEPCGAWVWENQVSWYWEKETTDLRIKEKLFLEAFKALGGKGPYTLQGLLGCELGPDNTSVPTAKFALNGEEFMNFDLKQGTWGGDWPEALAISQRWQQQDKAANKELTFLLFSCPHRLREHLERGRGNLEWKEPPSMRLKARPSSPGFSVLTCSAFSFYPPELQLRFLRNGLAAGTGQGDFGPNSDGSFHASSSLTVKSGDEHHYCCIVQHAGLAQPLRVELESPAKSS", "sequence (chain, as listed by the source limits assumed, chain 2 of 2)": "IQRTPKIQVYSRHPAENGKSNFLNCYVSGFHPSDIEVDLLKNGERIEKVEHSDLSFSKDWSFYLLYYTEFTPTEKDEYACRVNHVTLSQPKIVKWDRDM", "experiment": "SPR (ProteOn NLC chip), 25 C, pH 5.9, n = 3"}, "[2]": {"target": "Cynomolgus Monkey-FcRn (cynomolgus monkey) (UniProt Q8SPV9)", "sequence (Q8SPV9 24-297 limits assumed, form in doubt)": "as the sequence (P55899 24-297 limits assumed, chain 1 of 2) above, with N39D, E44Q, G99S, S189G, S190N, L217M, S269T counted along it", "experiment": "SPR (ProteOn NLC chip), 25 C, pH 5.9, n = 3"}, "[3]": {"target": "Cynomolgus Monkey-FCGRIIIa 42R (cynomolgus monkey) (UniProt Q8SPW2)", "sequence (Q8SPW2 17-208 limits assumed)": "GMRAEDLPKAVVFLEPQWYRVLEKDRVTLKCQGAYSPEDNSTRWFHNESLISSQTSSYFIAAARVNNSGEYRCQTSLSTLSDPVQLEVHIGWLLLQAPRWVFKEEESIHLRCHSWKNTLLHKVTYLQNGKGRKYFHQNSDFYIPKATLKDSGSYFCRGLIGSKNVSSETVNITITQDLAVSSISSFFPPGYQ", "experiment": "SPR (ProteOn NLC chip), 25 C, pH 7.4, n = 3"}, "[4]": {"target": "Cynomolgus Monkey-FCGRIIIa 42S (cynomolgus monkey)", "experiment": "SPR (ProteOn NLC chip), 25 C, pH 7.4, n = 3"}, "[5]": {"target": "Cynomolgus Monkey-FCGRIIa (cynomolgus monkey)", "experiment": "SPR (ProteOn NLC chip), 25 C, pH 7.4, n = 3"}, "[6]": {"target": "hu-FCGRI (hu-CD64) (human) (UniProt P12314)", "sequence (P12314 16-288 limits assumed)": "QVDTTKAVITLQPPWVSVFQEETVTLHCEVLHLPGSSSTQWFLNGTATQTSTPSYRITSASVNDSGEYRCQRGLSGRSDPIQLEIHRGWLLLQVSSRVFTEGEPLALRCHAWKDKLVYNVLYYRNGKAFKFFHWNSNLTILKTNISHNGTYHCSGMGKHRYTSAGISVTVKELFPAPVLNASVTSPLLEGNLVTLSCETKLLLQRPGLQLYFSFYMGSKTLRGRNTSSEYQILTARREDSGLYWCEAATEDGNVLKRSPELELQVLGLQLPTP", "experiment": "SPR (ProteOn NLC chip), 25 C, pH 7.4, n = 4"}, "[7]": {"target": "hu-FCGRIIa (hu-CD32a) 131H (human) (UniProt P12318)", "sequence (P12318 36-218)": "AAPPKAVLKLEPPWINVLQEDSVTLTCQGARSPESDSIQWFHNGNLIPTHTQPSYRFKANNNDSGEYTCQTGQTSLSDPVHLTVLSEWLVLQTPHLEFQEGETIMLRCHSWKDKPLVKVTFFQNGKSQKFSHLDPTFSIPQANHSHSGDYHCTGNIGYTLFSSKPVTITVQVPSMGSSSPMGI", "experiment": "SPR (ProteOn NLC chip), 25 C, pH 7.4"}, "[8]": {"target": "hu-FCGRIIa (hu-CD32a) 131R (human) (UniProt P12318)", "sequence (P12318 36-218 H167R)": "as the sequence (P12318 36-218) above, with H132R counted along it", "experiment": "SPR (ProteOn NLC chip), 25 C, pH 7.4"}, "[9]": {"target": "hu-FCGRIIb (hu-CD32b) (human) (UniProt P31994)", "sequence (P31994 46-217)": "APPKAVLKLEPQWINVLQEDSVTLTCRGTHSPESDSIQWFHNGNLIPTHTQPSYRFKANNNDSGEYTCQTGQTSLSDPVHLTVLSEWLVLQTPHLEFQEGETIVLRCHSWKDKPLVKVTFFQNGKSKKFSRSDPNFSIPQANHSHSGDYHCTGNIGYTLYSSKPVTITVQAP", "experiment": "SPR (ProteOn NLC chip), 25 C, pH 7.4"}, "[10]": {"target": "hu-FCGRI (hu-CD64) (human) (UniProt P12314)", "experiment": "SPR (ProteOn NLC chip), 25 C, pH 7.4"}, "[11]": {"target": "T1, rat PD-1 on primary rat T cells (rat, UniProt D3ZIN8 25-287)", "T1 sequence": "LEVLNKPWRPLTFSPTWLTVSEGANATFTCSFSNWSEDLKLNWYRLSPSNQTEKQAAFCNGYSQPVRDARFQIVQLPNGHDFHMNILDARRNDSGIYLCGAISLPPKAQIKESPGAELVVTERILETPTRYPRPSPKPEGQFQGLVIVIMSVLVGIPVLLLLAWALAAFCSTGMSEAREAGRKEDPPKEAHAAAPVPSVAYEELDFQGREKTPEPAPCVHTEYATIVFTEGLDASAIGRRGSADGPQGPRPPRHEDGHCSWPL", "experiment": "flow cytometry, activated rat T cells"}, "[12]": {"target": "mouse-PD-L1 (positive control of Example 12) (mouse, UniProt Q9EP73 19-238, limits assumed)", "experiment": "SPR, 25 C"}, "[13]": {"target": "T2, mouse-PD-L2 (positive control of Example 12) (mouse, UniProt Q9WUL5 20-219, limits assumed)", "T2 sequence (looked up)": "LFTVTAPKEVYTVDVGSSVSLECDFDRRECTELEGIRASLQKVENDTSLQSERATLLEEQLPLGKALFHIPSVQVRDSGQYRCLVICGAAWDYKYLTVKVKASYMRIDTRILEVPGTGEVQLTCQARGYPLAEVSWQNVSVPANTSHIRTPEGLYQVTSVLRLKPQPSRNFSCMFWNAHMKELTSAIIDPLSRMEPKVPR", "experiment": "SPR, 25 C"}, "[14]": {"target": "T3, human PD-1 (hPD-1) monomer (human, UniProt Q15116 25-167)", "T3 construct": "also called hu-PD-1; not shown: His tag (His-tagged monomer)", "T3 sequence (Q15116 25-167 limits assumed)": "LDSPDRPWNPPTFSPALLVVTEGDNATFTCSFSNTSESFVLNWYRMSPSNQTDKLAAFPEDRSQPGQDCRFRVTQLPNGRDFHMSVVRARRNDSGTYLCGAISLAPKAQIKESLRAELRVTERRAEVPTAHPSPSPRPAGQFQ", "experiment": "SPR, human PD-1, 37 C"}}, "data": [{"molecule": "Isotype-matched control, hu-IgG4 (antibody)", "values": [{"measurement": "Kd", "setting": "[1]", "value": 820, "unit": "nM"}, {"measurement": "Kd", "setting": "[2]", "value": 570, "unit": "nM"}, {"measurement": "Kd", "setting": "[3]", "value": 3200, "unit": "nM"}, {"measurement": "Kd", "setting": "[4]", "value": 1900, "unit": "nM"}, {"measurement": "Kd", "setting": "[5]", "value": 2600, "unit": "nM"}, {"measurement": "Kd", "setting": "[6]", "value": 0.177, "unit": "nM"}, {"measurement": "Kd", "setting": "[7]", "value": 3900, "unit": "nM"}, {"measurement": "Kd", "setting": "[8]", "value": 400, "unit": "nM"}, {"measurement": "Kd", "setting": "[9]", "value": 700, "unit": "nM"}, {"measurement": "koff", "setting": "[10]", "value": 0.0018, "unit": "s⁻¹"}, {"measurement": "kon", "setting": "[10]", "value": "1e+06", "unit": "M⁻¹ s⁻¹"}]}, {"molecule": "B1", "values": [{"measurement": "binding result", "setting": "[11]", "value": "binds"}]}, {"molecule": "B2", "values": [{"measurement": "binding result", "setting": "[12]", "value": "binds"}, {"measurement": "binding result", "setting": "[13]", "value": "binds"}]}, {"molecule": "B3", "values": [{"measurement": "Kd", "setting": "[14]", "value": 89, "unit": "nM"}]}]}
